Measured values taken from patent publication US10385103B2, “Cell-permeable (ICP)-SOCS3 recombinant protein and uses thereof” (CELLIVERY THERAPEUTICS, INC., priority 2014, dated 2019).
Like-named read-outs stand apart in the source and are kept apart here.

Columns and labels:
[1] = test system: STAT1; experiment: Inhibition of IFN-γ-induced STAT phosphorylation in PANC-1 cells (western blot), STAT1; format: cell-based; settings: PANC-1, 10 ng/ml IFN-γ 15 min, 10 μM protein 2 hrs
Experimental: PANC-1 Cells (KCLB, Seoul, South Korea) were treated with 10 ng/ml IFN-γ (R&D systems, Abingdon, UK) for 15 min and treated with either DMEM (vehicle) or 10 μM aMTD/SD-fused SOCS3 recombinant proteins for 2 hrs. The cells were lysed in RIPA lysis buffer (Biosesang, Seongnam, Korea) containing proteinase inhibitor cocktail (Roche, Indianapolis, Ind., USA), incubated for 15 min at 4° C., and centrifuged at 13,000 rpm for 10 min at 4° C. Equal amounts of lysates were separated on 10% SDS-PAGE gels and transferred to a nitrocellulose membrane. The membranes were blocked using 5% skim milk in TBST and for western blot analysis incubated with the following antibodies: anti-phospho-STAT1 (Cell Signaling Technology, USA) and anti-phospho-STAT3 (Cell Signaling Technology, USA), then HRP conjugated anti-rabbit secondary antibody (Santacruz).

[2] = test system: Chang liver cells; experiment: Wound cell migration assay; format: cell-based, human; settings: 10 μM 2 hrs, additional 24-72 hrs
Experimental: (§1) Cells were seeded into 12-well plates, grown to 90% confluence, and incubated with 10 μM Non-CP-SOCS3 (HS3B), iCP-SOCS3 (HM165S3B) in serum-free medium for 2 hrs prior to changing the growth medium (recommended medium by the supplier). The cells were washed twice with PBS, and the monolayer at the center of the well was “wounded” by scraping with a pipette tip. Cells were cultured for an additional 24-72 hrs and cell migration was observed by phase contrast microscopy (Nikon, ECLIPSE Ts2). The migration was quantified by counting the number of cells that migrated from the wound edge into the clear area.

[3] = test system: HepG2 cells; experiment: Wound cell migration assay; format: cell-based, human; settings: 10 μM 2 hrs, additional 24-72 hrs
Experimental: as §1

[4] = test system: Huh-7 cells; experiment: Wound cell migration assay; format: cell-based, human; settings: 10 μM 2 hrs, additional 24-72 hrs
Experimental: as §1

[5] = test system: normal Chang liver cells; experiment: Induction of apoptosis, Annexin V/7-AAD staining; format: cell-based, human; settings: example 20-2
Experimental: (§2) AGS cells (gastric carcinoma cell line) (American Type Culture Collection; ATCC) were seeded in a 12-well plate at a density of 1×10^5 cells/well, and then treated with 10 uM of aMTD/SD-fused SOCS3 for 14 hours. Cancer cell death was analyzed by Annexin V analysis. Annexin V/7-Aminoactinomycin D (7-AAD) staining was performed using flow cytometry according to the manufacturer's guidelines (BD Pharmingen, San Diego, Calif., USA). Briefly, cells were washed three times with ice-cold PBS. The cells were then resuspended in 100 μl of binding buffer and incubated with 1 μl of 7-AAD and 1 μl of annexin V-PE for 30 min in the dark at 37° C. Flow cytometric analysis was immediately performed using a guava easyCyte™ 8 Instrument (Merck Millipore, Darmstadt, Germany).
(§3) The effect of inducing apoptosis of Chang liver cells was measured in the same manner as in Example 11-2, except that as target cell lines, normal Chang liver cells and hepatocellular carcinoma cell lines, Hep3B, HepG2, Huh7, and SK-HEP-1 were used, and as a reference drug, 5-FU® (IC50: 40 μM) was used.

[6] = test system: Hep3B cells; experiment: Induction of apoptosis, Annexin V/7-AAD staining; format: cell-based, human; settings: example 20-2
Experimental: as §2, §3

[7] = test system: SK-Hep-1 cells; experiment: Induction of apoptosis, Annexin V/7-AAD staining; format: cell-based, human; settings: example 20-2
Experimental: as §2, §3

[8] = test system: Huh7 cells; experiment: Induction of apoptosis, Annexin V/7-AAD staining; format: cell-based, human; settings: example 20-2
Experimental: as §2, §3

[9] = Solubility/yield of SOCS3 recombinant proteins expressed and purified from E. coli; format: physicochemical
Experimental: Thereafter, the recombinant protein gene-introduced E. coli was inoculated in 7 ml of LB medium, and then incubated at 37° C. overnight. The E. coli was inoculated in 700 ml of LB medium and incubated at 37° C. until OD600 reached 0.6. To this culture medium, 0.6 mM of isopropyl-β-D-thiogalactoside (IPTG, Gen Depot, USA) was added as a protein expression inducer, followed by further incubation at 37° C. for 3 hours. This culture medium was centrifuged at 4° C. and 8,000 rpm for 10 minutes and a supernatant was discarded to recover a cell pellet. The cell pellet thus recovered was suspended in a lysis buffer (100 mM NaH2PO4, 10 mM Tris-HCl, 8 M Urea, pH 8.0), and cells were disrupted by sonication (on/off time: 30 sec/30 sec, on time 2 hours, amplify 40%), and centrifuged at 15,000 rpm for 30 min to obtain a soluble fraction and an insoluble fraction.
After purification, the proteins were put in a SnakeSkin Dialysis Tubing bag (pore size: 10000 mw, Thermo scientific, USA) and then they were dialyzed by physiological buffer (DMEM). The strain lysate where protein expression was not induced, the strain lysate where protein expression was induced by addition of IPTG, and purified proteins were loaded on SDS-PAGE to analyze protein expression characteristics and expression levels (FIGS. 19 and 20).
Solubility of aMTD/SD-fused SOCS3 proteins was scored on a 5 point scale compared with that of SOCS3 proteins lacking the solubilization domain.

B1: HM165S3B: His-tagged recombinant protein of aMTD165, human SOCS3 and solubilization domain B; prototype improved cell-permeable SOCS3 (protein)
chain: MGSSHHHHHHSSGLVPRGSHMALAVPVALAIVPVTHSKFPAAGMETSRPLDTSLRLKTFSSKSEYQLVVNAVRKLQESGFYWSAVTGGEANLLLSAEPAGTFLIRDSSDQRHFFTLSVKTQSGTKNLRIQCEGGSFSLQSDPRSTQPVPRFDCVLKLVHHYMETPPPGAPSFPSPPTEPSSEVPEQPSAQPLPGSPPRRAYYIYSGGEKIPLVLSRPLSSNVATLQHLCRKTVNGHLDSYEKVTQLPGPIREFLDQYDAPLGSMAEQSDKDVKYYTLEEIQKHKDSKSTWVILHHKVYDLTKFLEEHPGGEEVLGEQAGGDATENFEDVGHSTDARELSKTYIIGELHPDDRSKIAKPSETL
modifications: Amino acid sequence of HM165S3B
[1]
  IFN-γ-induced phosphorylation of STAT1: suppressed IFN-γ-induced phosphorylation of STAT1 and STAT3
[2]
  wound cell migration, normal Chang liver cells: had no effect on the cell migration
[3]
  wound cell migration, HepG2: suppressed the repopulation of wounded monolayer
[4]
  wound cell migration, Huh-7: suppressed the repopulation of wounded monolayer
[5]
  induction of apoptosis (Annexin V), normal Chang liver cells: dose not induced apoptosis in normal cells
[6]
  induction of apoptosis (Annexin V), Hep3B: considerably efficient inducer of apoptosis
[7]
  induction of apoptosis (Annexin V), SK-HEP-1: considerably efficient inducer of apoptosis
[8]
  induction of apoptosis (Annexin V), Huh7: considerably efficient inducer of apoptosis
[9]
  solubility/yield: high solubility/yield
[9]; expressed and purified in E. coli
  solubility (tendency to precipitate): had little tendency to precipitate
[9]; listed as SDB-fused iCP-SOCS3 recombinant protein
  solubility/yield: showed the highest solubility/yield
[9]; listed as aMTD165/SD-fused SOCS3 recombinant proteins
  solubility/yield: much higher than that of TAT/SD-fused SOCS3 or PolyR/SD-fused SOCS3 recombinant proteins
